From the DeepSol protein solubility set

Assay: soluble on expression in E. coli; label from the status in PepcDB or PDB records

Row | Sequence | soluble on expression in E. coli
1 | MGHHHHHHSHSHTIRDLKYTIENPRHFVDSHHQKPVNAIIEHVRDGSVVRALLLPDYYLVTVMLSGIKCPTFRREADGSETPEPFAAEAKFFTESRLLQRDVQIILESCHNQNILGTILHPNGNITELLLKEGFARCVDWSIAVYTRGAEKLRAAERFAKERRLRIWRDYVAPTANLDQK | not soluble
2 | MGHHHHHHSHSLHYIHPYQPNEYLKALVAVGEICQDYDSDKMFPAFGFGARIPPEYTVSHDFAINFNEDNPECAGIQGVVEAYQSCLPKLQLYGPTNIAPIIQKVAKSASEETNTKEASQYFILLILTDGVITDMADTREAIVHASHLPMSVIIVGVGNADFSDMQMLDGDDGILRSPKGEPVLRDIVQFVPFRNFKHASPAALAKSVLAEVPNQVVDYYNGKGIKPKCSSEMY | soluble
3 | MGHHHHHHSHSPGSASGGSREYKVVMLGAGGVGKSAMTMQFISHQFPDYHDPTIEDAYKTQVRIDNEPAYLDILDTAGQAEFTAMREQYMRGGEGFIICYSVTDRQSFQEAAKFKELIFQVRHTYEIPLVLVGNKIDLEQFRQVSTEEGLSLAQEYNCGFFETSAALRFCIDDAFHGLVREIRKKESMP | soluble
4 | MGHHHHHHSHSQIQGVQTNDDLNNDSDDSSDNCVIVGFVKPLAERTPELVELSSDSEDLGSYEKMETVKTQEQEQSYSSGDSDVSRCSSPHSVLGKDEQINKGHCDSSTRIKSKKEEKRSTSLSSPRNLNSSVRGDRVYSPYNHRHRKRGRSRSSDSRSQSRSGHDQKNHRKHHGKKRMKSKRSRSRESSRPRGRRDKKRSRTRDSSWSRRSQTLSLSSESTSRSRSRSSDHGKRRSRSRNRDRYYLRNNYGSRYKWEY | not soluble
5 | MGHHHHHHSHVSRHYCPTCCYPMNACLCSHLQQIKPQTQLLVLQHPSEVEHKKNSVRVLSLVIPDTQVYVGESEADFAALRAQLSRCQRPIYLVYPSEQSASVESQSICVDCVLLLIDGTWRKAFKILQLNPWLAQFPAVHLAQGYASRYKIRKSSRSDSLSTLEASAYMLKALDDGLDVSPLLAAFDAMVAMRLQAMPAEVRLRYD | not soluble
6 | MGHHHHHHSSGLVPRGSATERQDRNLLYEHAREGYSALPLLDMESLCAYPEDAARALDLRKGELRSKDLPGIISTWQELRQLREQIRSLEEEKEAVTEAVRALVVNQDNSQVQQDPQYQSLRARGREIRKQLTLLYPKEAQLEEQFYLRALRLPNQTHPDVPVGDESQARVLHVVGDKPAFSFQPRGHLEIAEKLDIIRQKRLSHVSGHRSYYLRGAGALLQHGLVNFTLNKLIHRGFTPMTVPDLLRGVVFEGCGMTPNAKPSQIYNIDPSRFEDLNLAGTAEVGLAGYFMDHSVAFRDLPIRMVCSSTCYRAETDTGKEPWGLYRVHHFTKVEMFGVTGPGLEQSSELLEEFLSLQMEILTELGLHFRVLDMPTQELGLPAYRKFDIEAWMPGRGRFGEVTSASNCTDFQSRRLHIMFQTEAGELQFAHTVNATGCAVPRLLIALLESYQQKDGSVLVPPALQPYLGTDRITTPTHVPLQYIGPNQPQKPRLPGQPASS | soluble
7 | MGICVSFRREDSNSSPTVKIVTVNGDLREYNVPVIASQVLEAESAAAYSSSSSSRPSSYFICDSDSLYYDDFIPAIKSEEPLQADQIYFVLPISKRQSRLTASDMAALAVKASVAIQNSVKKESRRRKKVRISPVMMLTGSNDSVNGNGSETTVKKGRPFVSKTAPVKASSGINRSGSVRNLRRYTSKRAKLAVRSFRLKLSTIYEGSVV | not soluble
8 | MGIFSERLKEAMQQANITSAQLSKQTGIGRSSISQWLSNKYVAKHDKVTALAAVLNVSPDWLLGTTDVATAVSPEAVPIPVSVTPTPAVDPELITLWEQLDTKQRSKLIKKARKLLTKSAEQPNTKRKKNKKKKKGKKRK | not soluble
9 | MGILFMSKVGLRGDRRSEGDEVLDPLRQALDSSMQSHNLYQHPQHLAFHVSAPVASTVQQASGLLGPLPHLSSFALQPAHSLLPPLGSHGAGFQENGAKAES | not soluble
10 | MGILFTRIWRLFNHQEHKVIIVGLDNAGKTTILYQFSMNEVVHTSPTIGSNVEEIVINNTRFLMWDIGGQESLRSSWNTYYTNTEFVIVVVDSTDRERISVTREELYKMLAHEDLRKAGLLIFANKQDVKECMTVAEISQFLKLTSIKDHQWHIQACCALTGEGLCQGLEWMMSRLKIRLEHHHHHH | soluble
11 | MGILKSLFTLGKSFVAQAEEAIDEAQGVRMLEQHIRDAKAELDKAGKSRVDLLARVKLSHDKLNDLRERKASLETRALAAMSKNVDAALLNEVAEEIARLENAILAEEQVLTNLEASRDAVEKAVTATGQRIAQFEQQLEVVKATEAMQRAQQAVTTSTVGAASNVSTAAESLKRLQTRQAERQARLDAAAQLEKVADGRDLDEKLAQAGIGATNKSNAQGVLARLQRQQGELEHHHHHH | not soluble
12 | MGINERLRHVIEAQKMTIKGFAETVDIPLRSVHNYLSGEREPSADALTKISNKLNINLNWLLLDQGEMYLNQSSDLTLNADEMNLLTQYRQTHDSGKRILQATSKIILDELK | not soluble
13 | MGIVSAASLIKVINEKQLKMAQDQNPLTALPGNRAIGGFIADSCSDGDETRFFCYCDFDNFKPFNDKYGFNAGDHAITLFSALMRRYFFAGDCFLGHIGGDDFFIGVRDWSVEELMEILERLLSDFHDDVAGLYSDEDRAAGCMKGQDRNGLEHHHHHH | soluble
14 | MGKEERAKWVNDEYAKAYEKMKSYGEQVKKADKPRVLYLKRSDLTLQGNDNFIKESMELAGADNIAAEAKSITMEEILKLDPEIILLSDFDKFLPQDLYENRIEGQDWSSVSAVVNKRVYKTPVGIYRWDAPGVETPLMMFWLGKMLQPEILEHHHHHH | not soluble
15 | MGKFSKIKKVQEEESAHQKMEWEAAGAKDSSSDDSSDESDNDDQPKQATEETRKRAELWTNRERVLVLCSRGADVRTRYLMKDIKDLLPHAKGDSKLDQQKSLNVLNEIAEMKNCTKVMYFESRKRKDTYLWMSNVEKGPSIKFLVHNVHTMKELKMSGNCLRASRPVLSFDDAFDKKPQLKLIKAVLMQTLGTPHHHPRSQPFVDHVFNFSVGEGDKIWFRNFQIVDESLQLQEVGPRFVLEMVRLFAGSFEGAVLYDNPNYVSPNVIRREHRKGQHSYIEKQLAVKASNIKQAKVTEILAEKTVDLVGKEFDTQNNAAADSEAAAQITAQIEKRRVRKKKSQASKYTGSD | soluble
16 | MGKILVLSDIHYPYCDIDEINKIMLSERPSLTVLLGDIIVSKSEDYRNFIDKLKIRKNIIYVKGDEDKFRGDFDLIKIKNNGKRFILLHGHQYFNENNEYSLAKVLKKMNDNIPPLLFCIFFRIMLRNFKDTIILGHSHAL | soluble
17 | MGKISIVGLGPGDYSLISQGVLESLINSPKVFFRTEKHPIIDKLKETIQYTSLDYFYEKEENFDNVYLKISEFIIEESAKGDLVYAVPGHPRVAEKTVSIIERLANEKHIAVEILPSMSFVDAMFNYLAIDPSEGFKLVDAFEIENSYIDLDTSMIITQVYDKFIASNVKLKLMEHYDYNQEVCIVNGAGVKDLESKKFIKLCELDRNENFFDYLTSLYIPKSSKKMYNTVHDLEIIVNTLRSPSGCEWDKKQTHQSLKNSVIEEAYELCNAIDNNDIDEMVEELGDVLLQVIFHCQIGNEEGYFDLKEVVNGICKKLIHRHPHIFSGAKLDMSKFEKTWEELKKEEKGESTITDGLRRIPKHLPALMKASKVQHKAALVGFDWDNVEDVFKKIEEEYQELLDEHRVGNIKYIKEELGDLLFSIVNLARFLDIDSGEALNCTTEKFINRFDFIEKSAMNLNKKLEDMTLEEMDEFWNQAKKQ | not soluble
18 | MGKKDKRSKLEGDDLAEAQQKGSFQLPSSNETAKLDASQWPLLLKNYDKLNVRTNHYTPHVEGVSPLKRDIKNYISSGFFNLDKPSNPSSHEVVSWIKRILRCEKTGHSGTLDPKVSGCLIVCIDRTTRLAKSQQGAGKEYICIFKLHEEVEDDRKVKQALEKLTGALFQRPPLISAVKRQLRIRTVYENKFIEYDPAQQMGIFNCICESGTYVRTICVHLGLILGCGGQMQELRRNRSGICDENENMVTMHDVLDAQYLLDTQKDESYMRHIVRPLEALLTQHKRVVVKDSCINAICYGAKILIPGILRYDDDIEVGKEIVIMSTKGEAICIAIAQMNTSTIASVDHGVVAKSKRVIMERDVYGRKWGLGPVASKKKQMVKDGLLDKFGKPNDTTPKSWAKEYVQTSTKKEVKKEETPDEEEEEAPKKKSKKSKKQESSDSDSD | not soluble
19 | MGKMAAAVGSVATLATEPGEDAFRKLFRFYRQSRPGTADLEGVIDFSAAHAARGKGPGAQKVIKSQLNVSSVSEQNAYRAGLQPVSKWQAYGLKGYPGFIFIPNPFLPGYQWHWVKQCLKLYSQKPNVCNLDKHMSKEETQDLWEQSKEFLRYKEATKRRPRSLLEKLRWVTVGYHYNWDSKKYSADHYTPFPSDLGFLSEQVAAACGFEDFRAEAGILNYYRLDSTLGIHVDRSELDHSKPLLSFSFGQSAIFLLGGLQRDEAPTAMFMHSGDIMIMSGFSRLLNHAVPRVLPNPEGEGLPHCLEAPLPAVLPRDSMVEPCSMEDWQVCASYLKTARVNMTVRQVLATDQNFPLEPIEDEKRDISTEGFCHLDDQNSEVKRARINPHS | not soluble
20 | MGKPMQVSRYWRHFREKYRLIGGKCENGHLLFPKRPICPICGSRNIEEFQFSGKGKVITWTIVRNPPSGFEYYKPYPLALVQLEEGPVVLAQLTDVEPEEIKEGMEVEMVTRKIREFDEDGLILYGYKFRPIIKSELEHHHHHH | soluble
21 | MGKPTGFMEYKRETPPKKDPFERSKNWQEFTLLMPESALRQQGARCMDCGVPFCQTGTSMDGSGEIGCPVYNLIPEWNDLVYRGHWKEALERLHKTNNFPEFTGRVCPAPCEGSCTVAISDDAVAIKSMEFHIVERGFQEGWIVPNPPRSRTGKKVAVVGSGPAGLAAAAQLNKAGHWVTVFEREDRIGGLLTYGIPDVKLPYHVVERRINLLKEEGIEFRTNVEIGKDVSAKQLKDDFDAVVLCTGATKPRDVNVKGRELKGIHFAMDFLTANTKSLLNSNHQDGNYISAKGKHVVVIGGGDTGADCITTSVRHGAKSITQFDINREKSNERPDNNPWPLFPIVHTVEDGHKEAAAVYGKDPRAYQVMTTKFVGDAEGHVKEIHTISVETTVHPDGSKTRVEIPGTEKVWPADLVFLAVGFTGPEEQLVRELELETDTRSNIKAEYGKYETSLEGVFAAGDNRRGQSLVVWAIHEGREAARECDKYLMGASNLPLEHHHHHH | soluble
22 | MGKRVVYPGTFDPPHYGHLDIVKRSARIFDEVVVAVAKKPRKFLLFDAEERVKMFEKMVEDIPNVEVKMFDCLLVDFMKREGINVIVRGVRLFTDFEYELQIALTNYKLAGVETVFMMPSQEYIHISSTIVRDVASYCGDLDNMVHPYVKQKLREKFNCGS | soluble
23 | MGKTIAEKIFASHLVDEPFAGTKVLRLDVVMCHEITTPIAIADLMARGKDRVFDPTKIKAVIDHVTPSKDSKTATQAKMLRDWARRHGIVDFFDVGANGVCHALFPEKGFIRPGYTVIMGDSHTCTHGAFGAFAAGIGTTDLEVGILKGVCAFREPKT | not soluble
24 | MGKTSQRKQCDCENPSKPCLSTSIPLRMSSYTFKRPVTKITSHLGNEVRYYQWEETFKKPEQACWQKRLQGLQAYSSAGELLSTSDLAKTLKDLTSTDTVASASDTQATSIDITSVPTLESSSHLANMIPEAGPQILCKEFLVTEQDIINQERKVKIARERLAVALIAHKLASEMETVRGSRKANL | not soluble
